Assay results: IntAct's records for PubMed 23977161

B1: Prelamin-A/C (Homo sapiens), P02545 (parent)
chain: METPSQRRATRSGAQASSTPLSPTRITRLQEKEDLQELNDRLAVYIDRVRSLETENAGLRLRITESEEVVSREVSGIKAAYEAELGDARKTLDSVAKERARLQLELSKVREEFKELKARNTKKEGDLIAAQARLKDLEALLNSKEAALSTALSEKRTLEGELHDLRGQVAKLEAALGEAKKQLQDEMLRRVDAENRLQTMKEELDFQKNIYSEELRETKRRHETRLVEIDNGKQREFESRLADALQELRAQHEDQVEQYKKELEKTYSAKLDNARQSAERNSNLVGAAHEELQQSRIRIDSLSAQLSQLQKQLAAKEAKLRDLEDSLARERDTSRRLLAEKEREMAEMRARMQQQLDEYQELLDIKLALDMEIHAYRKLLEGEEERLRLSPSPTSQRSRGRASSHSSQTQGGGSVTKKRKLESTESRSSFSQHARTSGRVAVEEVDEEGKFVRLRNKSNEDQSMGNWQIKRQNGDDPLLTYRFPPKFTLKAGQVVTIWAAGAGATHSPPTDLVWKAQNTWGCGNSLRTALINSTGEEVAMRKLVRSVTVVEDDEDEDGDDLLHHHHGSHCSSSGDPAEYNLRSRTVLCGTCGQPADKASASGSGAQVGGPISSGSSASSVTVTRSYRSVGGSGGGSFGDNLVTRSYLLGNSSPRTQSPQNCSIM

Columns and labels:
SYNE2, Q8WXH0-1 [1] = variants of: B1; conditions: with SYNE2, Q8WXH0-1
SYNE2, Q8WXH0-1 [2] = variants of: B1; conditions: with SYNE2, Q8WXH0-1; remark: listed apart in the source

Row | Variant | effect of a mutation on the interaction (SYNE2, Q8WXH0-1 [1]) | effect of a mutation on the interaction (SYNE2, Q8WXH0-1 [2])
1 | R427G | decreasing interaction strength | with no effect
2 | G411D | increasing interaction strength | with no effect
3 | R401C | increasing interaction strength | with no effect
4 | L421P | decreasing interaction strength | with no effect
5 | G413C | decreasing interaction strength | with no effect
6 | V415I | increasing interaction strength | with no effect
7 | R419C | decreasing interaction strength | with no effect
